In patent publication US12385050B1:

Legend:
[1] = biological target: endotoxin (endotoxin concentrate; δ-endotoxin of Bacillus thuringiensis)
[2] = biological target: endotoxin (endotoxin concentrate; δ-endotoxin of Bacillus thuringiensis); remark: listed apart in the source
[3] = biological target: endotoxin (endotoxin concentrate; δ-endotoxin of Bacillus thuringiensis); remark: listed apart in the source

recombinant Prosopis cineraria dehydrin PcDHN
RPW larval mortality rate, endotoxin solution with the LEA protein, 42 °C, 10 days [1]: 88%
RPW egg hatching rate, endotoxin solution with the LEA protein at 1:40, heat stress 42 °C, day 5 [2]: 13.6%
RPW adult mortality rate, endotoxin solution with the LEA protein, 42 °C, 10 days [3]: 76.3%

recombinant Phoenix dactylifera LEA2 protein PdLEA2.3
RPW larval mortality rate, endotoxin solution with the LEA protein, 42 °C, 10 days [1]: 83.3%
RPW egg hatching rate, endotoxin solution with the LEA protein at 1:40, heat stress 42 °C, day 5 [2]: 15%
RPW adult mortality rate, endotoxin solution with the LEA protein, 42 °C, 10 days [3]: 73.6%

recombinant Phoenix dactylifera dehydrin PdDHN
RPW larval mortality rate, endotoxin solution with the LEA protein, 42 °C, 10 days [1]: 85.6%
RPW egg hatching rate, endotoxin solution with the LEA protein at 1:40, heat stress 42 °C, day 5 [2]: 11.3%
RPW adult mortality rate, endotoxin solution with the LEA protein, 42 °C, 10 days [3]: 75%

recombinant Phoenix dactylifera LEA2 protein PdLEA2.2
RPW larval mortality rate, endotoxin solution with the LEA protein, 42 °C, 10 days [1]: 84.7%
RPW egg hatching rate, endotoxin solution with the LEA protein at 1:40, heat stress 42 °C, day 5 [2]: 11%
RPW adult mortality rate, endotoxin solution with the LEA protein, 42 °C, 10 days [3]: 75%

recombinant Phoenix dactylifera LEA2 protein PdLEA2.4
RPW larval mortality rate, endotoxin solution with the LEA protein, 42 °C, 10 days [1]: 83.6%
RPW egg hatching rate, endotoxin solution with the LEA protein at 1:40, heat stress 42 °C, day 5 [2]: 11.3%
RPW adult mortality rate, endotoxin solution with the LEA protein, 42 °C, 10 days [3]: 73.3%

recombinant Citrullus colocynthis dehydrin CcDHN
RPW larval mortality rate, endotoxin solution with the LEA protein, 42 °C, 10 days [1]: 89.7%
RPW egg hatching rate, endotoxin solution with the LEA protein at 1:40, heat stress 42 °C, day 5 [2]: 15%
RPW adult mortality rate, endotoxin solution with the LEA protein, 42 °C, 10 days [3]: 77.6%
